Measured values from patent US20140057332A1, “GLUCO-OLIGOSACCHARIDE OXIDASES FROM ACREMONIUM STRICTUM AND USES THEREOF” (The Governing Council of the University of Toronto, priority 2011, published 2014).

Columns and labels:
[1] = Effect of deglycosylation with PNGaseF on enzyme activity; format: biochemical
Experimental: Approximately 2 μg of purified enzyme was treated with PNGaseF (New England Biolabs) using denaturing and native conditions. Samples that were deglycosylated using denaturing conditions were analysed by SDS PAGE, while samples deglycosylated using native conditions were used to evaluate the impact of glycosylation on enzyme activity. The activity of enzymes was measured on 10 mM maltose at 37° C. for 15 min. (Table 7). N-glycosylation was predicted by NetNGlyc (http://www.cbs.dtu.dk/services/NetNGlyc/) while O-glycosylation was predicted by OGPET (http://ogpet.utep.edu/OGPET/).

[2] = Chromogenic H2O2 oxidase assay on xylopentaose; settings: 1 mM xylopentaose; 37° C., 15 min
Experimental: (§2) A chromogenic assay was used to measure hydrogen peroxide production (15). Reactions contained 0.1 mM 4aminoantipyrine (4AA), 1 mM phenol, 0.5 U horseradish peroxidase, 40 mM Tris-HCl (pH 8.0), and different substrates were initiated by adding 0.2 μg of enzymes to the 250 μL reaction mixture. The production of H2O2 was coupled to the oxidation of 4aminoantipyrine by horseradish peroxidase and detected at 500 nm. Reactions were incubated at 37° C. for 15 min to measure the specific activity of GOOX on 10 mM of monosaccharide or 1 mM of oligosaccharide.
(§3) An additional eight mutations, identified as Y72F, Y72A, E247A, E314A, W351A, N388S, Q353N, Q384A, were created in GOOX-VN to assess the influence of these residues on the substrate selectivity of GOOX-VN. […] The specific activity of each mutant was then measured at 37° C. for 15 min using 10 mM mono-sugars and 1 mM oligosaccharides as performed for Y300A, Y300N, and W351F (Table 11).

pH stability of enzyme = format: physicochemical
Experimental: (§1) Temperature stability was measured by incubating 0.2 μg of enzyme for 1 h at nine different temperatures ranging from 25 to 60° C. (Table 9). While GOOX-VN and the variant GOOX-V were stable at 45° C., both lost more than 70% activity after incubation for 1 h at 50° C. […] The pH stability of GOOX-VN was determined by incubating 0.2 μg of the enzyme for 1 h at pH values from pH 3 to 12. After 1 h of incubation, GOOX-VN retained more than 80% activity at pH 5 to pH 10, 40% activity at pH 4, and less than 10% activity at pH values below 3 or above 11. Finally, the optimum pH for GOOX-VN activity was determined by incubating 0.1 μg of enzyme at 37° C. for up to 5 min with 25 mM cellobiose in 25 mM Britton-Robinson universal buffer solutions at pH 5 to 12. At regular time points, the chromogenic assay mix containing 400 mM potassium phosphate buffer pH 6, 0.1 mM 4-aminoantipyrine, 1 mM phenol, 3 U/ml horseradish peroxidase and 40 mM cellobiose was added to the reaction and was incubated for approximately 5 min at 37° C., until the chromogenic compound was detected.

[3] = Chromogenic H2O2 oxidase assay / kinetic analysis on maltose
Experimental: as §2
(§4) At least 12 substrate concentrations were included to obtain kinetic parameters for each substrate. Initial rates were obtained by measuring reaction products every 30 s for 15 min at 37° C. and pH 8.0, and kinetic parameters were calculated using the Michaelis-Menten equation (GraphPad Prism5 Software).

[4] = Chromogenic H2O2 oxidase assay / kinetic analysis on xylobiose
Experimental: as §2, §4

[5] = Chromogenic H2O2 oxidase assay / kinetic analysis on xylotriose
Experimental: as §2, §4

[6] = Chromogenic H2O2 oxidase assay / kinetic analysis on xylose
Experimental: as §2, §4

[7] = Chromogenic H2O2 oxidase assay on xylotetraose; settings: 1 mM xylotetraose; 37° C., 15 min
Experimental: as §2, §3

[8] = Chromogenic H2O2 oxidase assay / kinetic analysis on cellobiose
Experimental: as §2, §4

[9] = Chromogenic H2O2 oxidase assay / kinetic analysis on galactose
Experimental: as §2, §4

[10] = substrate: OC[C@H]1O[C@@H](O[C@H]2[C@H](O)[C@@H](O)[C@H](O[C@H]3[C@H](O)[C@@H](O)C(O)O[C@@H]3CO)O[C@@H]2CO)[C@H](O)[C@@H](O)[C@@H]1O; test: purified protein, by the assay type; settings: other: 37° C., pH 8.0
Experimental: as §2, §4

[11] = substrate: OC[C@H]1OC(O)[C@H](O)[C@@H](O)[C@@H]1O; test: purified protein, by the assay type; settings: other: 37° C., pH 8.0
Experimental: as §2, §4

[12] = substrate: OC[C@H]1O[C@H](O[C@H]2[C@H](O)[C@@H](O)C(O)O[C@@H]2CO)[C@H](O)[C@@H](O)[C@@H]1O; test: purified protein, by the assay type; settings: other: 37° C., pH 8.0
Experimental: as §2, §4

[13] = Chromogenic H2O2 oxidase assay / kinetic analysis on glucose
Experimental: as §2, §4

[14] = Enzyme stability at 37° C. (residual activity on maltose); format: physicochemical; settings: pre-incubation at 37° C. for 60 min; 10 mM maltose (FIG. 11)
Experimental: The enzyme stability was evaluated in triplicate by incubating 0.6 μg of each enzyme preparation in 40 mM Tris-HCl buffer (pH 8.0) for 0, 5, 15, 25, 35, and 60 min at 37° C. Residual enzyme activity was measured at 37° C. for 15 min at pH 8.0 using 10 mM maltose and 0.2 μg of protein.

[15] = Chromogenic H2O2 oxidase assay / kinetic analysis on cellotriose
Experimental: as §2, §4

[16] = Chromogenic H2O2 oxidase assay / kinetic analysis on NAG
Experimental: as §2, §4

Optimum pH for activity = format: biochemical; settings: 25 mM cellobiose, 37° C., Britton-Robinson buffer pH 5 to 12
Experimental: as §1

[17] = 1 mM xylotriose, 37° C., 15 min
[18] = 1 mM cellobiose, 37° C., 15 min
[19] = 10 mM galactose, 37° C., 15 min
[20] = 1 mM cellotriose, 37° C., 15 min

B1: Acremonium strictum gluco-oligosaccharide oxidase GOOX-VN (type strain CBS 346.70, V38 and N388), SEQ ID NO. 2 (Sarocladium strictum; A38V/S388N) (protein)
chain: NSINACLAAADVEFHEEDSEGWEMDGTAFNLRVDYDPVAIAIPRSTEDIAAAVQCGLDAGVQISAKGGGHSYGSYGFGGEDGHLMLELDRMYRVSVDDDNVATIQGGARLGYTALELLDQGNRALTHGTCPAVGIGGHVLGGGYGFATHTHGLTLDWLVGATVVLADASIVHVSKTENADLFWALRGGGGGFAIVSEFEFNTFEAPEIITTYQVTTTWNRKQHVAGLKALQDWAENTMPRELSMRLEINANALNWEGNYFGNAKDLKKVLQPIMKKAGGKSTISKLVETDWYGQINTYLYGADLNITYNYDVHEYFYANSLTAPRLSDEAISAFVDYKFDNSSVRPGRGWWIQWDFHGGKNSALASHSNDETAYAHRDQLWLWQFYDNIYDYENNTSPYPESGFEFMQGFVATIEDTLPEDRKGKYFNYADTTLDKEEAQKLYWRGNLEKLQAIKAKYDPEDVFGNVVSVEPIA
- Activity, Deglycosylated ([1]; deglycosylated with PNGaseF (native conditions), 10 mM maltose, 15 min at 37° C., duplicate): 3.43 nmol/min
- loss in enzyme activity on deglycosylation ([1]; deglycosylation under native conditions): did not cause a detectable loss in enzyme activity
- Activity, Glycosylated ([1]; glycosylated enzyme, 10 mM maltose, 15 min at 37° C., duplicate): 3.51 nmol/min
- Specific Activity of Enzyme Variants [2]: 10.8 µmol/min/mg
- activity retained after 1 h of incubation (pH stability of enzyme; pH 4): 40%
- activity retained after 1 h of incubation (pH stability of enzyme; pH 5 to pH 10): more than 80%
- activity retained after 1 h of incubation (pH stability of enzyme; pH values below 3 or above 11): less than 10%
- Specific Activity of Enzyme Variants ([3]; 1 mM maltose, 37° C., 15 min): 1.5 µmol/min/mg
- Specific activity Defined substrate concentration ([3]; 1 mM maltose, 37° C., 15 min): 1.53 µmol/mg/min
- Specific activity From Vmax ([3]; substrate maltose): 5.94 µmol/mg/min
- Specific Activity of Enzyme Variants ([4]; 1 mM xylobiose, 37° C., 15 min): 7.9 µmol/min/mg
- Specific activity Defined substrate concentration ([4]; 1 mM xylobiose, 37° C., 15 min): 7.92 µmol/mg/min
- Specific activity From Vmax ([4]; substrate xylobiose): 8.73 µmol/mg/min
- Specific Activity of Enzyme Variants [5, 17]: 7.5 µmol/min/mg
- Specific activity Defined substrate concentration [5, 17]: 7.48 µmol/mg/min
- Specific activity From Vmax ([5]; substrate xylotriose): 8.23 µmol/mg/min
- Specific Activity of Enzyme Variants ([6]; 10 mM xylose, 37° C., 15 min): 0.4 µmol/min/mg
- Specific activity Defined substrate concentration ([6]; 10 mM xylose, 37° C., 15 min): 0.42 µmol/mg/min
- oxidation of xylose ([6]; after 3 min using 10 mM sugar): detected
- Specific activity From Vmax ([6]; substrate xylose): 5.20 µmol/mg/min
- Specific Activity of Enzyme Variants [7]: 10.2 µmol/min/mg
- Specific Activity of Enzyme Variants [8, 18]: 5.4 µmol/min/mg
- Specific activity Defined substrate concentration [8, 18]: 5.38 µmol/mg/min
- Specific activity From Vmax ([8]; substrate cellobiose): 6.18 µmol/mg/min
- Specific Activity of Enzyme Variants [9, 19]: 0.5 µmol/min/mg
- Specific activity Defined substrate concentration [9, 19]: 0.52 µmol/mg/min
- oxidation of galactose ([9]; after 3 min using 10 mM sugar): detected
- Specific activity From Vmax ([9]; substrate galactose): 7.08 µmol/mg/min
- Km [10]: 90 ± 10 µM
- kcat [10]: 6.02 ± 0.192 s⁻¹
- kcat/Km [10]: 70600 ± 8150 M⁻¹ s⁻¹
- Km [11]: 17360 ± 700 µM
- Km [12]: 2810 ± 160 µM
- Specific Activity of Enzyme Variants ([13]; 10 mM glucose, 37° C., 15 min): 2.6 µmol/min/mg
- Specific activity Defined substrate concentration ([13]; 10 mM glucose, 37° C., 15 min): 2.62 µmol/mg/min
- Specific activity From Vmax ([13]; substrate glucose): 7.41 µmol/mg/min
- activity following pre-incubation [14]: remained active
- Specific Activity of Enzyme Variants [15, 20]: 5.1 µmol/min/mg
- Specific activity Defined substrate concentration [15, 20]: 5.12 µmol/mg/min
- Specific activity From Vmax ([15]; substrate cellotriose): 5.96 µmol/mg/min
- Specific Activity of Enzyme Variants ([16]; 10 mM NAG, 37° C., 15 min): 0.2 µmol/min/mg
- Specific activity Defined substrate concentration ([16]; 10 mM NAG, 37° C., 15 min): 0.25 µmol/mg/min
- oxidation of NAG ([16]; after 3 min using 10 mM sugar): detected
- Specific activity From Vmax ([16]; substrate NAG): 8.00 µmol/mg/min
- pH optimum (Optimum pH for activity): 10 pH
